Experimental data from ChEMBL document CHEMBL1155272, “Nucleoside-5'-monophosphates as prodrugs of adenosine A2A receptor agonists activated by ecto-5'-nucleotidase” (J Med Chem, 2009).

Substrate: Nc1ncnc2c1ncn2[C@@H]1O[C@H](COP(=O)(O)O)[C@@H](O)[C@H]1O
Experiment: Activity at alkaline phosphatase

B1: Alkaline phosphatase, tissue-nonspecific isozyme (Homo sapiens), P05186 (protein)
chain: MISPFLVLAIGTCLTNSLVPEKEKDPKYWRDQAQETLKYALELQKLNTNVAKNVIMFLGDGMGVSTVTAARILKGQLHHNPGEETRLEMDKFPFVALSKTYNTNAQVPDSAGTATAYLCGVKANEGTVGVSAATERSRCNTTQGNEVTSILRWAKDAGKSVGIVTTTRVNHATPSAAYAHSADRDWYSDNEMPPEALSQGCKDIAYQLMHNIRDIDVIMGGGRKYMYPKNKTDVEYESDEKARGTRLDGLDLVDTWKSFKPRYKHSHFIWNRTELLTLDPHNVDYLLGLFEPGDMQYELNRNNVTDPSLSEMVVVAIQILRKNPKGFFLLVEGGRIDHGHHEGKAKQALHEAVEMDRAIGQAGSLTSSEDTLTVVTADHSHVFTFGGYTPRGNSIFGLAPMLSDTDKKPFTAILYGNGPGYKVVGGERENVSMVDYAHNNYQAQSAVPLRHETHGGEDVAVFSKGPMAHLLHGVHEQNYVPHVMAYAACIGANLGHCAPASSAGSLAAGPLLLALALYPLSVLF
- Km: 441 µM
